Residue numbers refer to the chain shown, from its start. Names may count otherwise.
T1: PUF4 RNA-binding domain (Saccharomyces cerevisiae, UniProt P25339 537-888)
T1 sequence: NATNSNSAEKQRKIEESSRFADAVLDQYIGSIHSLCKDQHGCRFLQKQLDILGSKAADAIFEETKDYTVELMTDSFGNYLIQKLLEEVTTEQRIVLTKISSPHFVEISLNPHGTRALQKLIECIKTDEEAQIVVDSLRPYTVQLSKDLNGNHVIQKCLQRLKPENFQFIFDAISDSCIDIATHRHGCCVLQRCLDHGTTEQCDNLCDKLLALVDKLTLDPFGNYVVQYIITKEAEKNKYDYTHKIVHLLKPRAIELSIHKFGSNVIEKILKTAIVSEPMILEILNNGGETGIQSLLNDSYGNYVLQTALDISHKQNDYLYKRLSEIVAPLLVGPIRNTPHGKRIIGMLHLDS

B1: Ic_S4_P5E.1_K5.1_C5.1_H5.1_A5.1_[T5A]_[T6A]_[A7T]_F5.1_[A10T]_T5.1 (ssRNA)
RNA: UUUGACAACUGAUCGUUCUUUCUUGUAAAUUUUUUCUUUCUCGAUCAGUUGUCUUU
B2: Ic_S4_P5E.1_K5.1_C5.1_H5.1_A5.1_[T5C]_[T6G]_[A7C]_F5.1_[T8G]_[A10C]_T5.1 (ssRNA)
RNA: B1 RNA with A28C, A29G, U30C, U31G, U33C
B3: Ic_S4_P5E.1_K5.1_C5.1_H5.1_A5.1_[T5C]_[T6C]_[A7C]_F5.1_[T8G]_[T9C]_[A10G]_T5.1 (ssRNA)
RNA: B1 RNA with A28C, A29C, U30C, U31G, U32C, U33G
B4: Ic_S4_P5E.1_K5.1_C5.1_H5.1_A5.1_[T5C]_[T6C]_[A7C]_F5.1_[T8G]_[T9C]_[A10C]_T5.1 (ssRNA)
RNA: B1 RNA with A28C, A29C, U30C, U31G, U32C, U33C
B5: Ic_S4_P5E.1_K5.1_C5.1_H5.1_A5.1_[T5G]_[T6C]_[A7G]_F5.1_[T9A]_T5.1 (ssRNA)
RNA: B1 RNA with A28G, A29C, U30G, U32A, U33A
B6: Ic_S4_P5E.1_K5.1_C5.1_H5.1_A5.1_[T5C]_[T6A]_F5.1_[T9C]_[A10T]_T5.1 (ssRNA)
RNA: B1 RNA with A28C, U30A, U32C
B7: Ic_S4_P5E.1_K5.1_C5.1_H5.1_A5.1_[T6G]_[A7T]_F5.1_[T8C]_[T9C]_[A10C]_T5.1 (ssRNA)
RNA: B1 RNA with A28U, A29G, U31C, U32C, U33C
B8: Ic_S4_P5E.1_K5.1_C5.1_H5.1_A5.1_[T5A]_F5.1_[T8A]_[A10T]_T5.1 (ssRNA)
RNA: B1 RNA with A29U, U30A, U31A
B9: Ic_S4_P5E.1_K5.1_C5.1_H5.1_A5.1_[A7T]_F5.1_[T9C]_[A10T]_T5.1 (ssRNA)
RNA: B1 RNA with A28U, A29U, U32C
B10: Ic_S4_P5E.1_K5.1_C5.1_H5.1_A5.1_[T6A]_[A7C]_F5.1_[T8C]_[T9C]_[A10G]_T5.1 (ssRNA)
RNA: B1 RNA with A28U, U30C, U31C, U32C, U33G
B11: Ic_S4_P5E.1_K5.1_C5.1_H5.1_A5.1_[T5C]_[T6A]_[A7T]_F5.1_[T8C]_[T9C]_T5.1 (ssRNA)
RNA: B1 RNA with A28C, U31C, U32C, U33A
B12: Ic_S4_P5E.1_K5.1_C5.1_H5.1_A5.1_[T6C]_[A7T]_F5.1_[T8A]_T5.1 (ssRNA)
RNA: B1 RNA with A28U, A29C, U31A, U33A
B13: Ic_S4_P5E.1_K5.1_C5.1_H5.1_A5.1_[T6A]_[A7C]_F5.1_[T8A]_[T9C]_[A10T]_T5.1 (ssRNA)
RNA: B1 RNA with A28U, U30C, U31A, U32C
B14: Ic_S4_P5E.1_K5.1_C5.1_H5.1_A5.1_[T6C]_[A7G]_F5.1_[T8C]_[T9C]_T5.1 (ssRNA)
RNA: B1 RNA with A28U, A29C, U30G, U31C, U32C, U33A
B15: Ic_S4_P5E.1_K5.1_C5.1_H5.1_A5.1_[T5C]_[T6C]_[A7T]_F5.1_[T8A]_[T9G]_[A10C]_T5.1 (ssRNA)
RNA: B1 RNA with A28C, A29C, U31A, U32G, U33C
B16: Ic_S4_P5E.1_K5.1_C5.1_H5.1_A5.1_[T5G]_[T6C]_F5.1_[T9A]_[A10C]_T5.1 (ssRNA)
RNA: B1 RNA with A28G, A29C, U30A, U32A, U33C
B17: Ic_S4_P5E.1_K5.1_C5.1_H5.1_A5.1_[T5A]_F5.1_[T8C]_[T9C]_[A10T]_T5.1 (ssRNA)
RNA: B1 RNA with A29U, U30A, U31C, U32C
B18: Ic_S4_P5E.1_K5.1_C5.1_H5.1_A5.1_[T5A]_[A7C]_F5.1_[T8C]_[T9G]_[A10C]_T5.1 (ssRNA)
RNA: B1 RNA with A29U, U30C, U31C, U32G, U33C
B19: Ic_S4_P5E.1_K5.1_C5.1_H5.1_A5.1_[T5C]_[T6A]_[A7C]_F5.1_[T9C]_[A10C]_T5.1 (ssRNA)
RNA: B1 RNA with A28C, U30C, U32C, U33C
B20: Ic_S4_P5E.1_K5.1_C5.1_H5.1_A5.1_[A7G]_F5.1_[T8G]_[A10T]_T5.1 (ssRNA)
RNA: B1 RNA with A28U, A29U, U30G, U31G
B21: Ic_S4_P5E.1_K5.1_C5.1_H5.1_A5.1_[T6C]_[A7G]_F5.1_[T8A]_[A10C]_T5.1 (ssRNA)
RNA: B1 RNA with A28U, A29C, U30G, U31A, U33C
B22: Ic_S4_P5E.1_K5.1_C5.1_H5.1_A5.1_[T5C]_[T6G]_[A7C]_F5.1_[T8A]_[T9G]_[A10C]_T5.1 (ssRNA)
RNA: B1 RNA with A28C, A29G, U30C, U31A, U32G, U33C
B23: Ic_S4_P5E.1_K5.1_C5.1_H5.1_A5.1_[T5A]_[T6A]_[A7T]_F5.1_[T8C]_[T9A]_[A10G]_T5.1 (ssRNA)
RNA: B1 RNA with U31C, U32A, U33G
B24: Ic_S4_P5E.1_K5.1_C5.1_H5.1_A5.1_[T5A]_[T6A]_[A7C]_F5.1_[T8C]_[T9G]_[A10C]_T5.1 (ssRNA)
RNA: B1 RNA with U30C, U31C, U32G, U33C
B25: Ic_S4_P5E.1_K5.1_C5.1_H5.1_A5.1_[T5C]_[A7T]_F5.1_[T8A]_[T9C]_[A10G]_T5.1 (ssRNA)
RNA: B1 RNA with A28C, A29U, U31A, U32C, U33G
B26: Ic_S4_P5E.1_K5.1_C5.1_H5.1_A5.1_[T6A]_[A7T]_F5.1_[T9C]_[A10C]_T5.1 (ssRNA)
RNA: B1 RNA with A28U, U32C, U33C
B27: Ic_S4_P5E.1_K5.1_C5.1_H5.1_A5.1_[T5A]_[A7T]_F5.1_[T8C]_[T9C]_[A10T]_T5.1 (ssRNA)
RNA: B1 RNA with A29U, U31C, U32C
B28: Ic_S4_P5E.1_K5.1_C5.1_H5.1_A5.1_[T5C]_[T6A]_[A7T]_F5.1_[T8A]_[T9G]_[A10T]_T5.1 (ssRNA)
RNA: B1 RNA with A28C, U31A, U32G
B29: Ic_S4_P5E.1_K5.1_C5.1_H5.1_A5.1_[T5A]_[A7T]_F5.1_[T9G]_[A10C]_T5.1 (ssRNA)
RNA: B1 RNA with A29U, U32G, U33C

Target: T1, PUF4 RNA-binding domain
Test: Mg; RNA-MaP; 20 mM Na-HEPES pH 7.4, 30 mM KOAc, 0.75 mM MgCl2, 0.1% Tween-20, 5% glycerol, 0.1 mg/mL BSA, 2 mM DTT; 25 C; 0.0125-409.6 nM protein
Details: tags: N-His6-TEV cleaved; C-SNAP kept, Cy3B-labelled; label: tethered on chip by stalled RNA polymerase

Binder	Kd [nM]
B1	16.9
B2	> 2300
B3	1670
B4	985
B5	25.3
B6	19.7
B7	66.1
B8	95.2
B9	15.6
B10	117
B11	20.4
B12	3.97
B13	75.1
B14	850
B15	74.3
B16	6.93
B17	379
B18	946
B19	6.67
B20	881
B21	1840
B22	882
B23	180
B24	703
B25	561
B26	3.74
B27	179
B28	5
B29	46.7

— publication PMC9352680, “A comprehensive thermodynamic model for RNA binding by the Saccharomyces cerevisiae Pumilio protein PUF4”
